Experimental data taken from patent publication US20100143940A1, “(3R)-HYDROXYACYL-ACP DEHYDRATASE ENZYMES USED IN THE BIOSYNTHESIS OF MYCOLIC ACIDS AND USE OF SAME FOR SCREENING ANTIBIOTICS” (priority 2007, published 2010).

Biological target: T1, 2-trans-octenoyl-ACP, P0A6A8
T1 chain: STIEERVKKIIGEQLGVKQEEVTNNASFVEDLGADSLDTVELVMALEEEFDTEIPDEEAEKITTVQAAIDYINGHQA

B1: Rv0636 protein of M. tuberculosis H37Rv fused with the N-terminal polyhistidine tag (protein)
chain: HHHHHHMALREFSSVKVGDQLPEKTYPLTRQDLVNYAGVSGDLNPIHWDDEIAKVVGLDTAIAHGMLTMGIGGGYVTSWVGDPGAVTEYNVRFTAVVPVPNDGKGAELVFNGRVKSVDPESKSVTIALTATTGGKKIFGRAIASAKLA
**Q.** For B1, which “specific activity (hydration followed at 263 nm), 2 µM substrate, 311 nM enzyme” value is on record?
**A.** no activity of the Rv0636 homodimer could be detected in the presence of octenoyl-ACP
